Results taken from patent US20030009022A1 (published 2003).
Ends that are not written are not given here. * marks the point of attachment. For = O=C*

T1: human formyl peptide receptor like-1 (FPRL-1) receptor (human, UniProt P25090 1-351)
T1 sequence (looked up): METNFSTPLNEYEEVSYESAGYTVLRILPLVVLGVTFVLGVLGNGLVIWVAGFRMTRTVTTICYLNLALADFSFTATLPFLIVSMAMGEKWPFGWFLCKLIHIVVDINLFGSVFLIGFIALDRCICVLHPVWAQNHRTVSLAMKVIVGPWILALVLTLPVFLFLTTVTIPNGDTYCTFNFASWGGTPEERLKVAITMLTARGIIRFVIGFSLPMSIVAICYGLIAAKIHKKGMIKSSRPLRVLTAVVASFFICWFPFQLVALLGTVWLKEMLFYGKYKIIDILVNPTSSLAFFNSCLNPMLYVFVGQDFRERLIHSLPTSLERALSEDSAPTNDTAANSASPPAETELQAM

T2: human formyl peptide receptor FPR1 (human, UniProt P21462 1-350)
T2 sequence (looked up): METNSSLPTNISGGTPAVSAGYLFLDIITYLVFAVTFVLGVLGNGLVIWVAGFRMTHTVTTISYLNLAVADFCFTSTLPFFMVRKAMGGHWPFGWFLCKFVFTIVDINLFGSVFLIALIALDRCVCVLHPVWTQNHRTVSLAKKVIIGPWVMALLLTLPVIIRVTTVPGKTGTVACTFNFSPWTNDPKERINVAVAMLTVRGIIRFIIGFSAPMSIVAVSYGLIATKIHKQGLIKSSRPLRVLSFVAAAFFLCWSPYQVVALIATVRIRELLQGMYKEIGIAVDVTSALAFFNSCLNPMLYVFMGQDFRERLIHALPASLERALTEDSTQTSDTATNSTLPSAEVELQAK


What was measured:
Assay in all cases: cell-based or functional assay
[1] = biological target: T1, human formyl peptide receptor like-1 …
[2] = biological target: T2, human formyl peptide receptor FPR1
[3] = biological target: T1, human formyl peptide receptor like-1 …; remark: listed apart in the source
[4] = biological target: T2, human formyl peptide receptor FPR1; remark: listed apart in the source

EC50(nM), transient Ca2+ flux in HEK293/Gα16 cells expressing FPRL-1 [1] | EC50(nM), transient Ca2+ flux in HEK293/Gα16 cells expressing FPR1 [2] | Binder | also measured
650 nM | 380 nM | RFPKNCHLRPPRMILFTALV [peptide AF-3] | 
80 nM | < 0.3 nM | MMWLL [peptide MMWLL, Met-Met-Trp-Leu-Leu] | 
2400 nM | > 10000 nM | PPFFFRPVGMF [peptide DM-1] | 
< 2 nM | > 10000 nM | LESIFRSLLFRVM [peptide MMK-1] | 

Second part, the binder before the results:

Binder | EC50(nM), transient Ca2+ flux in HEK293/Gα16 cells expressing FPRL-1 [1] | EC50(nM), transient Ca2+ flux in HEK293/Gα16 cells expressing FPR1 [2] | also measured
SMCPTASAWVWLM [peptide AF-2] | 87 nM | 690 nM | 
For-SLLWLTCRPWEAM [f-A5, N-terminally formylated derivative of peptide A5] | 2 nM | 10 nM | EC50 against that of A5, calcium mobilization in indo-1 loaded human neutrophils [3]: 10 fold lower EC50 than A5; EC50, calcium mobilization in HEK293/Gα16 cells expressing FPR1 [4]: 0.1 nM
CPAAVLWRWVPM [peptide AF-1] | 16 nM | 5000 nM | 
SLLWLTCRPWEAM [peptide A5, Ser-Leu-Leu-Trp-Leu-Thr-Cys-Arg-Pro-Trp-Glu-Ala-Met] | 35 nM | > 10000 nM | EC50, calcium mobilization in indo-1 loaded human neutrophils [3]: ~300 nM; apparent EC50, induction of β-galactosidase activity by synthetic peptide added to yeast strain CY6565 [3]: ~5000 nM; induction of β-galactosidase activity (FUSI-lacZ, yeast) [3]: 7 fold; stimulation over background levels of β-galactosidase (fus1-lacZ, yeast) [3]: 8 fold
For-Met-Leu-Phe [fMLP, formyl-MLF] | 40 nM | < 0.3 nM | EC50, transient calcium mobilization in HEK293/Gα16 cells expressing FPRL-1 [3]: 400 nM; EC50, calcium mobilization in human neutrophils [4]: < 0.2 nM
